Changes are numbered by the printed parent chain. Where “and” joins values, the source holds several entries; their conditions need not be identical. Equal values may be shown once.
T1: His tagged mouse CD47 protein (mouse, UniProt Q61735 19-140, limits assumed)
T1 construct: Bought protein
T1 sequence (looked up): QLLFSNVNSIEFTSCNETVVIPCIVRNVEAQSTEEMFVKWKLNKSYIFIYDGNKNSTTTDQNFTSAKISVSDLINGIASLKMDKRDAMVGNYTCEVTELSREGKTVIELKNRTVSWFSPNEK

B1: D8S1 mouse/human chimeric anti-human CD47 antibody (antibody, V domains shown)
VH: EVQLQQSVAELVRPGASVKLSCTVSGFNIKNTYIYWVKQRPEQGLEWIGRIDPANGNTKDAPKFQGKATMTADTSSNTAYLQLSSLTSEDTAIYYCARGYGSGFAYWGQGTLVTVSA
VL: DIQMTQTTSSLSASLGDRVTISCRASQDISNHLNWYQQKPDGIVKLLIYYTSRLHSGVPSRFSGSGSGTDYSLTISNLEQEDIATYFCQQGSTLPFTFGSGTKLEIK
notes: also called chimeric D8S1
B2: D96S1 mouse/human chimeric anti-human CD47 antibody (antibody, V domains shown)
VH: EVQLQQSGAELVKPGASVKLSCTASGFNIKDTYIHWVKQRPEQGLEWIGRIDPANGNIKSDPKFQGKATVTADTSSNTAYLQLSSLTSEDTAVYYCARSYGSSFASWGQGTLVTVSP
VL: B1 VL with I43A, L94F, F96Y, S100G
notes: also called chimeric D96S1
B3: D41S2 mouse/human chimeric anti-human CD47 antibody (antibody, V domains shown)
VH: B1 VH with V24P, K38R
VL: B1 VL with I43T
notes: also called chimeric D41S2
B4: D36S4 mouse/human chimeric anti-human CD47 antibody (antibody, V domains shown)
VH: EVKLEESGGGLVQPGGSMKLSCVASGFTFSRYWMNWVRQSPDKGLEWVAQIRLKSDNYETHYAESVKGRFTISRDDSKSSVYLQMNNLRAEDTGIYYCIEEGGYYVPFAYWGQGTLVTVSA
VL: DIVVSQSPSSLAVSAGEKVTMSCKSSQSLFKSRTRKNYLAWYQQRPGQSPKLLIYWASIRESGVPDRFTGSGSGTEFTLTISSVQAEDLAVYYCKQSYYLLTFGAGTKLELK
notes: also called chimeric D36S4 antibody; D36S4 H/L
B5: D125S3 mouse/human chimeric anti-human CD47 antibody (antibody, V domains shown)
VH: EVQLVESGGDLVKPGGSLNLSCAASGFTFSDYGMSWVRQTPDMRLEWVATISKYGTYTSYPDSVKGRFTISRSNAKNTLYLQMSSLKSADTALYYCARRFFGNYNYWYFDVWGAGTTVTVSS
VL: DIVLTQSPASLAVSLGQRATFSCRASESVDEFGISYIHWYKKSPGQPPKLLIYRASTLESGISARFSGSGSGTDFTLTINPVETDDVATYYCQQSNQDPLTFGAGTKLELK
notes: also called chimeric D125S3
B6: D28S1 mouse/human chimeric anti-human CD47 antibody (antibody, V domains shown)
VH: EVQLVESGGDLVKPGGSLKLSCAASGFTFTSYGMSWVRQTPDKRLEWVATINTGGSYTYYPDSVKGRFTISRDNAKNTLYLQMSSLKSEDTAMYYCARHTIKSLMDYWGQGTSVTVSS
VL: ETTVTQSPASLSMAIGEKVTIRCITSTDIDDDMNWYQQKPGEPPKLLISEGNTLRPGVPSRFSSSGYGTDFVFIIENMFSEDVADYYCLQSDNLPYTFGSGTKLEIK
notes: also called chimeric D28S1; D28S1VH/VL
B7: D8S1 (antibody, V domains shown)
VH: B1 VH
VL: B1 VL
notes: Mouse hybridoma form; the mouse/human chimeric form with the same V regions is m13; also called D8S1 mouse anti-human CD47 hybridoma antibody
B8: D41S2 (antibody, V domains shown)
VH: B1 VH with V24P, K38R
VL: B1 VL with I43T
notes: Mouse hybridoma form; the mouse/human chimeric form with the same V regions is m16; also called D41S2 mouse anti-human CD47 hybridoma antibody
B9: HuD36S4 H2/L1 humanized anti-CD47 antibody (antibody, V domains shown)
VH: EVQLVESGGGLVQPGGSLRLSCAASGFTFSRYWMNWVRQAPGKGLEWVGQIRLKSDNYETHYAESVKGRFTISRDDSKNSLYLQMNSLKTEDTAVYYCIEEGGYYVPFAYWGQGTLVTVSS
VL: DIVMTQSPDSLAVSLGERATINCKSSQSLFKSRTRKNYLAWYQQKPGQPPKLLIYWASIRESGVPDRFSGSGSGTDFTLTISSLQAEDVAVYYCKQSYYLLTFGGGTKVEIK
B10: HuD36S4 H2/L2 humanized anti-CD47 antibody (antibody, V domains shown)
VH: B9 VH
VL: DIVMTQTPLSLPVTPGEPASISCKSSQSLFKSRTRKNYLAWYLQKPGQSPQLLIYWASIRESGVPDRFSGSGSGTDFTLKISRVEAEDVGVYYCKQSYYLLTFGGGTKVEIK
B11: HuD36S4 H3/L1 humanized anti-CD47 antibody (antibody, V domains shown)
VH: B9 VH with G49A, N79S
VL: B9 VL
B12: HuD36S4 H1/L1 humanized anti-CD47 antibody (antibody, V domains shown)
VH: B9 VH with I99A, E100R
VL: B9 VL
B13: HuD36S4 H1/L2 humanized anti-CD47 antibody (antibody, V domains shown)
VH: B9 VH with I99A, E100R
VL: B10 VL
B14: HuD36S4 H3/L2 humanized anti-CD47 antibody (antibody, V domains shown)
VH: B9 VH with G49A, N79S
VL: B10 VL

biological target: T2, human CD47ECD mouse Fc protein (human, UniProt Q08722 19-139, limits assumed); experiment: SPR (Biacore 3000); antibody captured on anti-human Fc chip, bivalent HuCD47ECD muFc injected
T2 construct: extracellular domain; also called HuCD47ECD muFc; bivalent CD47ECD muFc protein; not shown: mouse Fc
Description: (§1) The binding affinities of anti-human CD47 mouse/human chimeric antibodies to human CD47 protein were determined with BIACORE™ using a capture method. The anti-human CD47 mouse/human chimeric antibodies were captured using anti-human Fc antibody coated on a CMS chip. Serial dilutions of human CD47ECD mouse Fc protein starting from 400 nM were injected over captured antibody for 1 mins at a flow rate of […]. Alternatively, serial dilutions of human CD47ECD His tagged protein starting from 800 nM were injected over captured antibody for 1 min at a flow rate of […]. The antigens were allowed to dissociate for 900s. All the experiments were carried out on a Biacore 3000. Data analysis was carried out using Biacore 3000 evaluation software.

T2 sequence (Q08722 19-139 limits assumed): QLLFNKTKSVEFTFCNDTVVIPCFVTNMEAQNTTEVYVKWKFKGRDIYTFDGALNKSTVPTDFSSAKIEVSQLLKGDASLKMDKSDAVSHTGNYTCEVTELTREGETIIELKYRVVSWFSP

Kd [nM]	koff [s⁻¹]	kon [M⁻¹ s⁻¹]	Binder
0.295	4.77e-05	161000	B1
	1.45e-05	257000	B2
0.228	3.34e-05	147000	B3
0.0194	1.18e-05	605000	B4
0.346	7.72e-05	223000	B5
1.38	0.000413	299000	B6

biological target: T1, His tagged mouse CD47 protein; experiment: ELISA, plate coated with His tagged mouse CD47 at 2 ug/ml, goat anti-mouse IgG-HRP, OD450
Description: To evaluate the binding cross-reactivity of anti-human CD47 antibodies to cynomolgus and mouse CD47, an ELISA based binding assay was used. Briefly, microtiter plates were coated with His tagged cynomolgus monkey CD47 or His tagged mouse CD47 protein (purchase from Acro Biosystem). Both proteins were coated at 2 μg/ml in PBS, 100 μl/well at 4° C. overnight. The plates were then blocked with 100 μl/well of 2% BSA. Ten-fold dilutions of mouse anti-human CD47 hybridoma antibodies were added to each well starting at 70 ug/ml and incubated for 1-2 hours at RT. The plates were washed with PBS/Tween and then incubate with goat-anti-mouse IgG antibody conjugated with Horse Radish Peroxidase (HRP) for 1 hour at RT. After washing, the plates were developed with TMB substrate and analyzed by spectrophotometer at OD 450 nm.

binding result	Binder
no binding (tested: 70 ug/ml)	B7
no binding (tested: 70 ug/ml)	B8

biological target: T3, human CD47ECD His tagged protein (human, UniProt Q08722 19-139, limits assumed); experiment: SPR (Biacore 3000); antibody captured on anti-human Fc chip, monovalent HuCD47ECD 8xHis injected
T3 construct: extracellular domain; also called HuCD47ECD 8xHis; monovalent CD47ECD His tagged protein
Description: as §1

T3 sequence (Q08722 19-139 limits assumed): as above

Kd [nM]	koff [s⁻¹]	kon [M⁻¹ s⁻¹]	Binder
3.28	0.00049	150000	B1
3.13	0.000253	80900	B2
5.2	0.000756	145000	B3
0.702	0.000236	337000	B4
3.62	0.000511	163000	B5

biological target: T4, human CD47 (full length) expressed on cells (human, UniProt Q08722 19-323); experiment: FACS ligand blocking on CD47-CHO cells; blocked ligand FITC human SIRPa huFc at 4 ug/ml
T4 construct: whole, on cells; also called human CD47/CHO cells; CHO/CD47 cells
Description: To evaluate the blocking effect of anti-human CD47 mouse/human chimeric antibodies to human full length CD47 expressed on CHO cells, the FACS-based ligand blocking assay was used. CD47-CHO cells were first incubated with 3 fold serially diluted mouse/human chimeric mAbs starting at 100 μg/ml on ice for 30 min. […] The cells were then washed 3 times with the FACS buffer and the mean florescence intensities (MFI) of FITC were evaluated by FACS Caliber. […] AB6.12 is a humanized version of anti-CD47 antibody 2A1 from Celgene and was used as a reference antibody in the assay.

T4 sequence (Q08722 19-323): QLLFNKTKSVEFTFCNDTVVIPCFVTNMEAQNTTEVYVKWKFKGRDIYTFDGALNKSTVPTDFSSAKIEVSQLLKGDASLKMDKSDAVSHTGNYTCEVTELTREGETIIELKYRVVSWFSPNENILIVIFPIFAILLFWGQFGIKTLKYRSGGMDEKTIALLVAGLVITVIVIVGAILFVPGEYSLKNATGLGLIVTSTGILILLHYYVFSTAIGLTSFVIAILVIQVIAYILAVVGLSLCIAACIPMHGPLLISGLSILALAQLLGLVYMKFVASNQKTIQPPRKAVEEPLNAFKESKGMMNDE

IC50 [µg/mL]	Binder
19.4	B1
11.3	B2
11.6	B3
5.1	B4
15.4	B5
12.3	B6

biological target: T4, human CD47 (full length) expressed on …; experiment: FACS ligand blocking on CD47-CHO cells; blocked ligand FITC human SIRPa huFc at 5 ug/ml
Description: The cells were then washed 3 times with the FACS buffer and the mean florescence intensities (MFI) of FITC were evaluated by FACS Caliber.

IC50 [µg/mL]	Binder
1.9	B9
3.6	B10
4.4	B11
7.3	B12
13	B13
2.5	B14
1.6	B4

biological target: T2, human CD47ECD mouse Fc protein; experiment: SPR (Biacore 3000); antibody captured on anti-human Fc chip, bivalent HuCD47ECD muFc injected; column Affinity (nM)
Description: as §1

Kd [nM]	Binder
0.295	B1
0.562	B2
0.228	B3
0.0194	B4
0.346	B5
1.38	B6

biological target: T3, human CD47ECD His tagged protein; experiment: SPR (Biacore 3000); antibody captured on anti-human Fc chip, monovalent HuCD47ECD 8xHis injected; column Affinity (nM)
Description: as §1

Kd [nM]	Binder
3.28	B1
3.13	B2
5.2	B3
0.702	B4
3.62	B5

biological target: T3, human CD47ECD His tagged protein; experiment: ELISA ligand blocking, plate coated with human CD47 ECD His tagged protein at 1 ug/ml; blocked ligand human SIRPaECD huFc at 1 ug/ml, anti-human IgG-HRP
Description: To evaluate the blocking ability of anti-human CD47 mouse mAb on recombinant human CD47 binding to its ligand SIRPα, an ELISA based ligand blocking assay was employed. Briefly, microtiter plates were coated with human CD47ECD His tagged protein at 1 μg/ml in PBS, 100 μl well at 4° C. overnight, then blocked with 100 μl/well of 2% BSA. […] The plates were washed with PBS/Tween and then incubated with anti-human IgG-HRP for 1 hour at 37° C. After washing, the plates were developed with TMB substrate and analyzed by spectrophotometer at OD 450 nm.

IC50	Binder
0.27 µg/mL and 1.77 nM	B7
0.16 µg/mL and 1.06 nM	B8

biological target: T3, human CD47ECD His tagged protein; experiment: ELISA ligand blocking, plate coated with human CD47 ECD His tagged protein at 1 ug/ml; blocked ligand human SIRPaECD muFc at 1 ug/ml, anti-mouse IgG-HRP
Description: Briefly, microtiter plates were coated with human CD47ECD His tagged protein at 1 μg/ml in PBS, 100 μl well at 4° C. overnight, then blocked with 100 μl/well of 2% BSA. […] The plates were washed with PBS/Tween and then incubated with anti-mouse IgG-HRP for 1 hour at 37° C. After washing, the plates were developed with TMB substrate and analyzed by spectrophotometer at OD 450 nm.

IC50 [µg/mL]	Binder
0.09	B9
0.11	B10
0.17	B11
2.3	B12
2.76	B13
0.1	B14
0.07	B4

— US20210206850A1 (ACCURUS BIOSCIENCES, published 2021)
